Test results taken from paper PMC3875777, “Aberrantly hypermethylated Homeobox A2 derepresses metalloproteinase-9 through TBP and promotes invasion in Nasopharyngeal carcinoma”.

Experiments:
[1] = molecular target: recombinant His-TBP (UniProt P20226 1-339); experiment: EMSA; supershifted by antibody; Pull-down: 100-250 pmole probe on M-280 streptavidin Dynabeads, 100-250 ug nuclear extract, 2.5 ug salmon sperm DNA, 1 h room temperature, washes with 0.5% NP-40; EMSA: LightShift kit, 20 fmol probe, 37 C 20 min, 6% gel in 1X TBE; salt and pH not given; conditions: protein: recombinant; tags: His; label: 5'-biotin; blunt
[2] = molecular target: recombinant His-HOXA2 (UniProt O43364 1-376); experiment: as above; conditions: protein: recombinant; tags: His; label: 5'-biotin; blunt
Chain of recombinant His-HOXA2 (O43364 whole entry): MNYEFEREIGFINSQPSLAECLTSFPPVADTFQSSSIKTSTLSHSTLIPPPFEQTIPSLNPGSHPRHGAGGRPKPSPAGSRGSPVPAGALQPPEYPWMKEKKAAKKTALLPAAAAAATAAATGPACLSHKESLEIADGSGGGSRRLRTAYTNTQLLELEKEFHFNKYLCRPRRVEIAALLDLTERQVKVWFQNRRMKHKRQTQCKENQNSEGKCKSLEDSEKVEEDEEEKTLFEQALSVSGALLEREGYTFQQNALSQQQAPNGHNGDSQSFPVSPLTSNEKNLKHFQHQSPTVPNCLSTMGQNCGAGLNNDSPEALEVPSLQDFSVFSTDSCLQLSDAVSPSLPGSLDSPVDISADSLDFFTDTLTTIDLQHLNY

Chain of recombinant His-TBP (P20226 whole entry): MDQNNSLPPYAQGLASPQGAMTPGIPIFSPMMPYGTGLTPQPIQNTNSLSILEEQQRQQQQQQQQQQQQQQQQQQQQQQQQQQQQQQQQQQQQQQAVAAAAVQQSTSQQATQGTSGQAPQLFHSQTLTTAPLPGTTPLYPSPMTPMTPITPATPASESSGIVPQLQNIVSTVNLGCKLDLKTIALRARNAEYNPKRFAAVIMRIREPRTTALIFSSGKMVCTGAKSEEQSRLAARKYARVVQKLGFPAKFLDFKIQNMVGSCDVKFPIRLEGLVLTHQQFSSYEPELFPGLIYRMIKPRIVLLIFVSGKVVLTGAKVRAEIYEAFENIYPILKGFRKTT

B1: MMP9 TATA WT (dsDNA)
DNA 1: GAGCGCCTCCTTAAAGCCCCCACAA
DNA 2: TTGTGGGGGCTTTAAGGAGGCGCTC
B1: binds [1]; binds [2].
